In general, Kd refers to a measure of binding affinity in units of concentration. A higher Kd goes with a looser complex. By koff is commonly meant the first-order rate constant of dissociation. In general, kon refers to the rate constant with which the complex forms. A higher kon goes with faster complex formation. The term EC50 denotes the concentration needed to bring the measured effect to its halfway point. Read a low EC50 as an effect from little substance.

Experimental findings from patent US20230212272A1 (LONGBIO PHARMA SUZHOU, published 2023) are described below.

Positions count from the first letter of the chain named.

The target of experiment [1] is T1, human C5 antigen (human, UniProt P01031 19-673; P01031 678-1676).
T1 construct: The later ELISAs detect it with an anti-histidine antibody, so it carries a His tag; also called complement component 5
The experiment can be described thus: BLI (ForteBio Octet). For orientation: In BLI a coated tip is dipped into the sample, and binding shifts an interference pattern.

Experiment [2] concerns the target T1, human C5 antigen. Kind of experiment: ELISA, antibody coated, human C5 titrated; EC50 is the antigen concentration.
Description: The wells were blocked with 2.5% skimmed milk dissolved in a phosphate-buffered saline (PBS) for 1 hour, and washed with a PBST solution (a PBS solution containing 20% Tween). Then, 100 μL of the human C5 gradient diluent (the C5 was diluted to 1 ug/ml, followed by 3 X dilution to give 7 gradients, with 100 μL/well) was added into each well, and incubated at room temperature for 1 hr.
EC₅₀ can be used to evaluate the concentration of antigen at the 50% binding capacity of various antibodies to the antigen.
Experiment [3] concerns the target T2, C5 of normal human serum (NHS) (human, UniProt P01031 19-1676). The experiment can be described thus: cell-based or functional assay.
For experiment [4], the target named is T2, C5 of normal human serum (NHS). The experiment can be described thus: cell-based or functional assay. The source holds these as a separate data set.

B1: humanized antibody 16H46L39am (antibody, human IgG1, kappa, L234A L235A, V domains shown)
VH: QVQLVQSGAEVKKPGASVKVSCKASGYTFTNYGMNWVRQAPGQGLEWMGWINTYTGEPTYADDFKGRFTFTLDTSTSTAYLELSSLRSEDTAVYYCARTKVPLYFAYAMDYWGQGTLVTVSS
VL: DIQLTQSPSSLSASVGDRVTITCKASQSVDYEGDSYLNWYQQKPGKAPKLLIYAASNLESGIPSRFSGSGSGTDFTLTISSLQPEDFATYYCQQSNEDPSTFGGGTKVEIKR
For B1, in experiment [1], the affinity, expressed as Kd, was 0.369 nM; the koff turned out to be 7.86e-05 s⁻¹; the kon came out at 213000 M⁻¹ s⁻¹. In experiment [2], this molecule displayed an EC50 of 0.169 µg/mL. Also, in experiment [3], the “IC50 (ng/ml), classical pathway (CP) hemolysis inhibition” value (shortened to “IC50 … (CP) hemolysis inhibition”) turned out to be 330 ng/mL and the “IC90 (ng/ml), classical pathway (CP) hemolysis inhibition” value (from here on “IC90 … (CP) hemolysis inhibition”) amounted to 507 ng/mL.

B2: humanized antibody 16H1L2m (antibody, human IgG1, kappa, L234A L235A, V domains shown)
VH: B1 VH with A9S, V11L, T69V, T71S, T76V, T78M, E82Q, L83I, R87K, S88A
VL: DIVLTQSPSSLAVSLGERATINCKASQSVDYEGDSYLNWYQQKPGQPPKLLIYAASNLESGIPDRFSGSGSGTDFTLTISSLQAEDVAVYYCQQSNEDPSTFGGGTKVEIKR
On to B2, for which, in experiment [1], the Kd is 0.359 nM, the koff came out at 7.81e-05 s⁻¹ and the kon amounted to 217000 M⁻¹ s⁻¹. In experiment [2], the EC50 was determined as 0.117 µg/mL. In addition, in experiment [3], the “IC50 … (CP) hemolysis inhibition” value came to 347 ng/mL and the “IC90 … (CP) hemolysis inhibition” value turned out to be 511 ng/mL.

B3: Eculizumab (antibody, human IgG2, kappa, V domains shown)
VH: QVQLVQSGAEVKKPGASVKVSCKASGYIFSNYWIQWVRQAPGQGLEWMGEILPGSGSTEYTENFKDRVTMTRDTSTSTVYMELSSLRSEDTAVYYCARYFFGSSPNWYFDVWGQGTLVTVSS
VL: DIQMTQSPSSLSASVGDRVTITCGASENIYGALNWYQQKPGKAPKLLIYGATNLADGVPSRFSGSGSGTDFTLTISSLQPEDFATYYCQNVLNTPLTFGQGTKVEIKR
On to B3, for which, in experiment [4], the “IC50 (ng/ml), inhibition of classical pathway hemolysis of sheep red blood cells by 1% NHS” value worked out at 401 ng/mL. For the same molecule, in experiment [3], the “IC50 … (CP) hemolysis inhibition” value came out at 559 ng/mL and the “IC90 … (CP) hemolysis inhibition” value worked out at 1340 ng/mL.

B4: chimeric antibody CHI-16 (antibody, human IgG1, kappa, L234A L235A, V domains shown)
VH: QIQLVQSGPELKKPGETVKISCKASGYTFTNYGMNWVKQAPGKGLKWMGWINTYTGEPTYADDFKGRFAFSLETSASTAYLQINNLKNEDTATYFCTRTKVPLYFAYAMDYWGQGTSVTVSS
VL: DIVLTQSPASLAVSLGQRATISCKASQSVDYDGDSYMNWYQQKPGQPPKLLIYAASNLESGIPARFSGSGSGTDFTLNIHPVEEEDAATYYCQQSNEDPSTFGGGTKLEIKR
As for B4, in experiment [4], the “IC50 (ng/ml), inhibition of classical pathway hemolysis of sheep red blood cells by 1% NHS” value was 204 ng/mL. In experiment [3], the “IC50 … (CP) hemolysis inhibition” value is 302 ng/mL and the “IC90 … (CP) hemolysis inhibition” value worked out at 500 ng/mL.
